Measurements taken from patent US20050049402A1.

Key:
[1] = molecular target: transmembrane mutant TNFα expressed on the surface of CHO cells (UniProt P01375); assay: cell-based or functional assay
[2] = molecular target: human TNFα (Tumor Necrosis Factor-alpha), soluble (human) (UniProt P01375); assay: cell-based or functional assay
[3] = molecular target: monkey (cynomolgous macaque) GST-TNFα (cynomolgous macaque) (UniProt P79337); assay: ELISA, plate coated with 2 µg/ml monkey (cynomolgus macaque) GST-TNFα, HRP goat anti-human IgG detection
Sequence of monkey (cynomolgous macaque) GST-TNFα (cynomolgous macaque) (P79337 77-233): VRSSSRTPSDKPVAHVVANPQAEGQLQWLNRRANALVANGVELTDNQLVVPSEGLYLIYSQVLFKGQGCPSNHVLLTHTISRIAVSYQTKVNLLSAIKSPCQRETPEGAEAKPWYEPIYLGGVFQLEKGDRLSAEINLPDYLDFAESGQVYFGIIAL

Sequence of human TNFα (Tumor Necrosis Factor-alpha), soluble (human) (P01375 77-233): as the sequence (P79337 77-233) above, with V37L, T44R, N72T, L138R counted along it
Sequence of transmembrane mutant TNFα expressed on the surface of CHO cells (P01375 whole entry, change not shown, form in doubt): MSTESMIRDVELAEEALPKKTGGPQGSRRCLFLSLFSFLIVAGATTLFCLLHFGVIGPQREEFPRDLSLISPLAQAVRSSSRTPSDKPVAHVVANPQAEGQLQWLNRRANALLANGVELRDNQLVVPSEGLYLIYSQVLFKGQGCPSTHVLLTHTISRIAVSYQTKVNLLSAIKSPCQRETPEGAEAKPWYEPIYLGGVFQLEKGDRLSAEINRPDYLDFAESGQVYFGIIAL

ADCC (%) [1] [%] | CDC (%) [1] [%] | EC50 (read off the curve) [3] [ng/mL] | Substance | IC50 1 hr Pre-incubation, TNF induced apoptosis in MCF-7 cells [2] [nM] | IC50 18 hr Pre-incubation, TNF induced apoptosis in MCF-7 cells [2] [nM] | In vivo Potency (IC50), ALT, hTNFα/D-GalN hepatic injury in mice [2] [nM] | In vivo Potency (IC50), human TNFα-induced IL-6 in mice [2] [nM]
2 | 2 | – | irrelevant human IgG1 control antibody | – | – | – | –
– | – | 3 | Etanercept (Fc fusion) | 0.0034 | 0.0022 | 27 | 27
